From US12173061B2, “Compositions and methods for treatment of chronic lung diseases” (Board of Regents, The University of Texas System, priority 2021, dated 2024)

B1: A5^ECD: recombinant extracellular domain of A5 (ECD of hALG5) (protein, listed as Homo sapiens)
chain: MTTATKMPALHRHEEEKFFLNAKGQKETLPSIWDSPTKQLSVVVPSYNEEKRLPVMMDEALSYLEKRQKADPAFTYEVIVVDDGSKDQTSKVAFKYCQKYGSDKVRVITLVKNRGKGGAIRMGIFSSRGEKILMADADGATKFPDVEKLEKGLNDLQPWPNQMAIACGSRAHLEKESIAQRSYFRTLLMYGFHFLVWFLCVKGIRDTQCGFKLFTREAASRTFSSLHVERWAFDVELLYIAQFFKIPIAEIAVNWTEIEGSKLVPFWSWLQMGKDLLFIRLRYLTGAWRLEQTRKMN
B2: A5 protein: recombinant full length human ALG5 protein (SEQ ID NO: 9) (protein, listed as Homo sapiens)
chain: MAPLLLQLAVLGAALAAAALVLISIVAFTTATKMPALHRHEEEKFFLNAKGQKETLPSIWDSPTKQLSVVVPSYNEEKRLPVMMDEALSYLEKRQKRDPAFTYEVIVVDDGSKDQTSKVAFKYCQKYGSDKVRVITLVKNRGKGGAIRMGIFSSRGEKILMADADGATKFPDVEKLEKGLNDLQPWPNQMAIACGSRAHLEKESIAQRSYFRTLLMYGFHFLVWFLCVKGIRDTQCGFKLFTREAASRTFSSLHVERWAFDVELLYIAQFFKIPIAEIAVNWTEIEGSKLVPFWSWLQMGKDLLFIRLRYLTGAWRLEQTRKMN
B3: U5A protein: recombinant full length human UNC5A protein (SEQ ID NO: 5) (protein, listed as Homo sapiens)
chain: MAVRPGLWPALLGIVLAAWLRGSGAQQSATVANPVPGANPDLLPHFLVEPEDVYIVKNKPVLLVCKAVPATQIFFKCNGEWVRQVDHVIERSTDGSSGLPTMEVRINVSRQQVEKVFGLEEYWCQCVAWSSSGTTKSQKAYIRIAYLRKNFEQEPLAKEVSLEQGIVLPCRPPEGIPPAEVEWLRNEDLVDPSLDPNVYITREHSLVVRQARLADTANYTCVAKNIVARRRSASAAVIVYVDGSWSPWSKWSACGLDCTHWRSRECSDPAPRNGGEECQGTDLDTRNCTSDLCVHTASGPEDVALYVGLIAVAVCLVLLLLVLILVYCRKKEGLDSDVADSSILTSGFQPVSIKPSKADNPHLLTIQPDLSTTTTTYQGSLCPRQDGPSPKFQLTNGHLLSPLGGGRHTLHHSSPTSEAEEFVSRLSTQNYFRSLPRGTSNMTYGTFNFLGGRLMIPNTGISLLIPPDAIPRGKIYEIYLTLHKPEDVRLPLAGCQTLLSPIVSCGPPGVLLTRPVILAMDHCGEPSPDSWSLRLKKQSCEGSWEDVLHLGEEAPSHLYYCQLEASACYVFTEQLGRFALVGEALSVAAAKRLKLLLFAPVACTSLEYNIRVYCLHDTHDALKEVVQLEKQLGGQLIQEPRVLHFKDSYHNLRLSIHDVPSSLWKSKLLVSYQEIPFYHIWNGTQRYLHCTFTLERVSPSTSDLACKLWVWQVEGDGQSFSINFNITKDTRFAELLALESEAGVPALVGPSAFKIPFLIRQKIISSLDPPCRRGADWRTLAQKLHLDSHLSFFASKPSPTAMILNLWEARHFPNGNLSQLAAAVAGLGQPDAGLFTVSEAEC

Test system: BLM-induced pulmonary fibrosis
Test: BLM-induced established pulmonary fibrosis in mice, treatment d14-d21
Assay type: in vivo
Details: for BLM-induced pulmonary fibrosis (overall): mice, 1.0 U/kg BLM IT, protein 7.5 mg/kg/d IP daily for 7 days starting d14; for BLM-induced pulmonary fibrosis (overall) / lung compliance / lung elastance: d21; for BLM-induced fibrogenic marker proteins (Col1, FN, TN-C, α-SMA) in whole lung homogenates / body weight / collagen and other extracellular matrix deposits (Trichrome staining of lung sections) / fibrogenic marker transcripts in whole lung homogenates / lung weight / lung compliance / lung elastance / whole lung total hydroxyproline: protein 7.5 mg/kg/d IP, 7 days starting d14 after BLM; for lung compliance / lung elastance: flexiVent; for whole lung total hydroxyproline: lung homogenates
Description: FIGS. 9A-9O. M9 peptide and protein mitigated BLM-induced pulmonary fibrosis. Mice exposed to saline or 1.0 U/kg BLM by intratracheal instillation were treated with or without M9 peptide HGHVDPVKTPKI (SEQ ID NO: 4) (10 mg/kg/d) and M9 protein (SEQ ID NO: 1) 7.5 mg/kg/d) via IP injection daily for 7 days starting d14 after BLM injury. FIG. 9A: Representative micro-CT images at d21 after BLM exposure. FIG. 9B: Lung volumes were measured by quantitative-CT renditions. Lung compliance (FIG. 9C) and elastance (FIG. 9D) were measured using a flexiVent system. Lung weights (FIG. 9E) and body weights (FIG. 9F) are presented as bar graphs. Lung homogenates were tested for hydroxyproline (FIG. 9G), soluble collagen (FIG. 9H), pro-fibrogenic marker proteins (FIG. 9I) and mRNAs (FIG. 9J). Bars indicate mean±SD. Statistical significance (*P<0.05, **P<0.01, ***P<0.001 and ****P<0.0001) was assessed by one-way ANOVA with Turkey's multiple comparison. fLfs isolated from IPF lungs treated with PBS or recombinant full length M9 (rM9^FL) protein (2 μg/ml) for 48 h in vitro were tested for pro-fibrogenic proteins (FIG. 9L). fLfs (from IPF lungs) treated with PBS or extracellular domain of rM9^FL protein (rM9^ECD) as in FIG. 9L were tested for pro-fibrogenic proteins (FIG. 9N). The survival the mice treated with rM9^FL is shown FIG. 9M.
FIGS. 10A-10K. UNC5A (“U5”) peptide/protein mitigated BLM-induced pulmonary fibrosis. Mice exposed to saline or 1.0 U/kg BLM by intratracheal instillation were treated with or without U5 peptide (50 residues, SEQ ID NO: 7) (10 mg/kg/d) and full length U5 protein (SEQ ID NO: 5) (7.5 mg/kg/d) via IP injection daily for 7 days starting d14 after BLM injury. FIG. 10A: Representative micro-CT images at d21 after BLM exposure. FIG. 10B: Lung volumes were measured by quantitative-CT renditions. Lung compliance (FIG. 10C) and elastance (FIG. 10D) were measured using a flexiVent system. Lung weights (FIG. 10E) and body weights (FIG. 10F) are presented as bar graphs. Lung homogenates were tested for hydroxyproline (FIG. 10G), soluble collagen (FIG. 10H), pro-fibrogenic marker proteins (FIG. 10I) and mRNAs (FIG. 10J). Bars indicate mean±SD. Statistical significance (*P<0.05, **P<0.01, ***P<0.001 and ****P<0.0001) was assessed by one-way ANOVA with Turkey's multiple comparison.
FIGS. 11A-11K. ALG5 (“A5”) protein mitigated BLM-induced pulmonary fibrosis. Mice exposed to saline or 1.0 U/kg BLM by intratracheal instillation were treated with or without A5 protein (SEQ ID NO: 9) (7.5 mg/kg/d) via IP injection daily for 7 days starting d14 after BLM injury. FIG. 11A: Representative micro-CT images at d21 after BLM exposure. FIG. 11B: Lung volumes were measured by quantitative-CT renditions. Lung compliance (FIG. 11C) and elastance (FIG. 11D) were measured using a flexiVent system. Lung weights (FIG. 11E) and body weights (FIG. 11F) are presented as bar graphs. Lung homogenates were tested for hydroxyproline (FIG. 11G), soluble collagen (FIG. 11H), pro-fibrogenic marker proteins (FIG. 11I) and mRNAs (FIG. 11J). Bars indicate mean±SD. *P<0.05, **P<0.01, ***P<0.001 and ****P<0.0001 were obtained by one-way ANOVA with Turkey's multiple comparison.
FIGS. 12A-12E. WT mice with BLM-PF were treated with or without rM9^ECD (1.5 mg/kg) via intratracheal (IT) instillation daily for 7 d starting d 14 after BLM. Survival (FIG. 12A), body weights (FIG. 12B), lung volumes (FIG. 12C) and lung weights (FIG. 12D) were measured on d 21 post-BLM. Lung homogenates were tested for soluble collagen (FIG. 12E).
FIGS. 13A-13B. FIG. 13A: fLfs (IPF) treated with PBS or M9^mAb (2 μg/ml) or control IgG, tested for pro-fibrogenic proteins (i) and mRNAs (ii). FIG. 13B: WT mice with BLM-PF were left untreated, or intraperitoneal (IP) injected with control IgG or M9^mAb (2.5 mg/kg) daily for 7 d starting 14 d after IT BLM. Body weights (i) and total lung hydroxyproline (ii), and soluble collagen (iii) were measured. […]

Molecule	BLM-induced pulmonary fibrosis (overall)	BLM-induced pulmonary fibrosis (overall) (listed as A5^FL)	BLM-induced pulmonary fibrosis (overall) (listed as ALG5 (A5) Protein)	BLM-induced fibrogenic marker proteins (Col1, FN, TN-C, α-SMA) in whole lung homogenates	body weight	collagen and other extracellular matrix deposits (Trichrome staining of lung sections)	fibrogenic marker transcripts in whole lung homogenates	lung weight	lung compliance	lung elastance	whole lung total hydroxyproline	BLM-induced pulmonary fibrosis (overall) (listed as Full Length U5A Protein)	BLM-induced pulmonary fibrosis (overall) (listed as U5a^FL)	BLM-induced pulmonary fibrosis (overall) (listed as U5 protein)
B1	mitigated													
B2	mitigated	mitigated	Mitigated	inhibition	improvement	reduction	inhibition	reduction	improved	improved	reduction			
B3				inhibition	improvement	reduction	inhibition	reduction	improved	improved	reduction	Mitigated	mitigated	mitigated
